Bridges are numbered along the chain shown (N, C = ends). [ ]: non-standard residue; d: D form. The star is where a group is joined. Biotin = O=C1N[C@H]2[C@H](CS[C@H]2CCCCC(=O)*)N1; R8 = C=CCCCCCC[C@@](C)(N)C(=O)O; S5 = C=CCCC[C@](C)(N)C(=O)O
B1: ATSP-7041 B26C (peptide)
peptide: Biotin-LTF[R8]EYWAQC[S5]SAA-NH2
modifications: staple 4-11
SMILES: CC(C)C[C@H](NC(=O)CCCC[C@@H]1SC[C@@H]2NC(=O)N[C@@H]21)C(=O)N[C@H](C(=O)N[C@@H](Cc1ccccc1)C(=O)N[C@]1(C)CCCCCCC=CCCC[C@@](C)(C(=O)N[C@@H](CO)C(=O)N[C@@H](C)C(=O)N[C@@H](C)C(N)=O)NC(=O)[C@H](CS)NC(=O)[C@H](CCC(N)=O)NC(=O)[C@H](C)NC(=O)[C@H](Cc2c[nH]c3ccccc23)NC(=O)[C@H](Cc2ccc(O)cc2)NC(=O)[C@H](CCC(=O)O)NC1=O)[C@@H](C)O
B2: ATSP-7041 B26S (peptide)
peptide: Biotin-LTF[R8]EYWAQS[S5]SAA-NH2
modifications: staple 4-11
SMILES: CC(C)C[C@H](NC(=O)CCCC[C@@H]1SC[C@@H]2NC(=O)N[C@@H]21)C(=O)N[C@H](C(=O)N[C@@H](Cc1ccccc1)C(=O)N[C@]1(C)CCCCCCC=CCCC[C@@](C)(C(=O)N[C@@H](CO)C(=O)N[C@@H](C)C(=O)N[C@@H](C)C(N)=O)NC(=O)[C@H](CO)NC(=O)[C@H](CCC(N)=O)NC(=O)[C@H](C)NC(=O)[C@H](Cc2c[nH]c3ccccc23)NC(=O)[C@H](Cc2ccc(O)cc2)NC(=O)[C@H](CCC(=O)O)NC1=O)[C@@H](C)O
B3: ATSP-7041 B26H (peptide)
peptide: Biotin-LTF[R8]EYWAQH[S5]SAA-NH2
modifications: staple 4-11
SMILES: CC(C)C[C@H](NC(=O)CCCC[C@@H]1SC[C@@H]2NC(=O)N[C@@H]21)C(=O)N[C@H](C(=O)N[C@@H](Cc1ccccc1)C(=O)N[C@]1(C)CCCCCCC=CCCC[C@@](C)(C(=O)N[C@@H](CO)C(=O)N[C@@H](C)C(=O)N[C@@H](C)C(N)=O)NC(=O)[C@H](Cc2c[nH]cn2)NC(=O)[C@H](CCC(N)=O)NC(=O)[C@H](C)NC(=O)[C@H](Cc2c[nH]c3ccccc23)NC(=O)[C@H](Cc2ccc(O)cc2)NC(=O)[C@H](CCC(=O)O)NC1=O)[C@@H](C)O
B4: ATSP-7041 B26T (peptide)
peptide: Biotin-LTF[R8]EYWAQT[S5]SAA-NH2
modifications: staple 4-11
SMILES: CC(C)C[C@H](NC(=O)CCCC[C@@H]1SC[C@@H]2NC(=O)N[C@@H]21)C(=O)N[C@H](C(=O)N[C@@H](Cc1ccccc1)C(=O)N[C@]1(C)CCCCCCC=CCCC[C@@](C)(C(=O)N[C@@H](CO)C(=O)N[C@@H](C)C(=O)N[C@@H](C)C(N)=O)NC(=O)[C@H]([C@@H](C)O)NC(=O)[C@H](CCC(N)=O)NC(=O)[C@H](C)NC(=O)[C@H](Cc2c[nH]c3ccccc23)NC(=O)[C@H](Cc2ccc(O)cc2)NC(=O)[C@H](CCC(=O)O)NC1=O)[C@@H](C)O
B5: ATSP-7041 B26P (peptide)
peptide: Biotin-LTF[R8]EYWAQP[S5]SAA-NH2
modifications: staple 4-11
SMILES: CC(C)C[C@H](NC(=O)CCCC[C@@H]1SC[C@@H]2NC(=O)N[C@@H]21)C(=O)N[C@H](C(=O)N[C@@H](Cc1ccccc1)C(=O)N[C@]1(C)CCCCCCC=CCCC[C@@](C)(C(=O)N[C@@H](CO)C(=O)N[C@@H](C)C(=O)N[C@@H](C)C(N)=O)NC(=O)[C@@H]2CCCN2C(=O)[C@H](CCC(N)=O)NC(=O)[C@H](C)NC(=O)[C@H](Cc2c[nH]c3ccccc23)NC(=O)[C@H](Cc2ccc(O)cc2)NC(=O)[C@H](CCC(=O)O)NC1=O)[C@@H](C)O
B6: ATSP-7041 B26Q (peptide)
peptide: Biotin-LTF[R8]EYWAQQ[S5]SAA-NH2
modifications: staple 4-11
SMILES: CC(C)C[C@H](NC(=O)CCCC[C@@H]1SC[C@@H]2NC(=O)N[C@@H]21)C(=O)N[C@H](C(=O)N[C@@H](Cc1ccccc1)C(=O)N[C@]1(C)CCCCCCC=CCCC[C@@](C)(C(=O)N[C@@H](CO)C(=O)N[C@@H](C)C(=O)N[C@@H](C)C(N)=O)NC(=O)[C@H](CCC(N)=O)NC(=O)[C@H](CCC(N)=O)NC(=O)[C@H](C)NC(=O)[C@H](Cc2c[nH]c3ccccc23)NC(=O)[C@H](Cc2ccc(O)cc2)NC(=O)[C@H](CCC(=O)O)NC1=O)[C@@H](C)O
B7: ATSP-7041 B26G (peptide)
peptide: Biotin-LTF[R8]EYWAQG[S5]SAA-NH2
modifications: staple 4-11
SMILES: CC(C)C[C@H](NC(=O)CCCC[C@@H]1SC[C@@H]2NC(=O)N[C@@H]21)C(=O)N[C@H](C(=O)N[C@@H](Cc1ccccc1)C(=O)N[C@]1(C)CCCCCCC=CCCC[C@@](C)(C(=O)N[C@@H](CO)C(=O)N[C@@H](C)C(=O)N[C@@H](C)C(N)=O)NC(=O)CNC(=O)[C@H](CCC(N)=O)NC(=O)[C@H](C)NC(=O)[C@H](Cc2c[nH]c3ccccc23)NC(=O)[C@H](Cc2ccc(O)cc2)NC(=O)[C@H](CCC(=O)O)NC1=O)[C@@H](C)O
B8: ATSP-7041 B26V (peptide)
peptide: Biotin-LTF[R8]EYWAQV[S5]SAA-NH2
modifications: staple 4-11
SMILES: CC(C)C[C@H](NC(=O)CCCC[C@@H]1SC[C@@H]2NC(=O)N[C@@H]21)C(=O)N[C@H](C(=O)N[C@@H](Cc1ccccc1)C(=O)N[C@]1(C)CCCCCCC=CCCC[C@@](C)(C(=O)N[C@@H](CO)C(=O)N[C@@H](C)C(=O)N[C@@H](C)C(N)=O)NC(=O)[C@H](C(C)C)NC(=O)[C@H](CCC(N)=O)NC(=O)[C@H](C)NC(=O)[C@H](Cc2c[nH]c3ccccc23)NC(=O)[C@H](Cc2ccc(O)cc2)NC(=O)[C@H](CCC(=O)O)NC1=O)[C@@H](C)O
B9: ATSP-7041 B26K (peptide)
peptide: Biotin-LTF[R8]EYWAQK[S5]SAA-NH2
modifications: staple 4-11
SMILES: CC(C)C[C@H](NC(=O)CCCC[C@@H]1SC[C@@H]2NC(=O)N[C@@H]21)C(=O)N[C@H](C(=O)N[C@@H](Cc1ccccc1)C(=O)N[C@]1(C)CCCCCCC=CCCC[C@@](C)(C(=O)N[C@@H](CO)C(=O)N[C@@H](C)C(=O)N[C@@H](C)C(N)=O)NC(=O)[C@H](CCCCN)NC(=O)[C@H](CCC(N)=O)NC(=O)[C@H](C)NC(=O)[C@H](Cc2c[nH]c3ccccc23)NC(=O)[C@H](Cc2ccc(O)cc2)NC(=O)[C@H](CCC(=O)O)NC1=O)[C@@H](C)O
B10: ATSP-7041 B26R (peptide)
peptide: Biotin-LTF[R8]EYWAQR[S5]SAA-NH2
modifications: staple 4-11
SMILES: CC(C)C[C@H](NC(=O)CCCC[C@@H]1SC[C@@H]2NC(=O)N[C@@H]21)C(=O)N[C@H](C(=O)N[C@@H](Cc1ccccc1)C(=O)N[C@]1(C)CCCCCCC=CCCC[C@@](C)(C(=O)N[C@@H](CO)C(=O)N[C@@H](C)C(=O)N[C@@H](C)C(N)=O)NC(=O)[C@H](CCCNC(=N)N)NC(=O)[C@H](CCC(N)=O)NC(=O)[C@H](C)NC(=O)[C@H](Cc2c[nH]c3ccccc23)NC(=O)[C@H](Cc2ccc(O)cc2)NC(=O)[C@H](CCC(=O)O)NC1=O)[C@@H](C)O
B11: ATSP-7041 B26D (peptide)
peptide: Biotin-LTF[R8]EYWAQD[S5]SAA-NH2
modifications: staple 4-11
SMILES: CC(C)C[C@H](NC(=O)CCCC[C@@H]1SC[C@@H]2NC(=O)N[C@@H]21)C(=O)N[C@H](C(=O)N[C@@H](Cc1ccccc1)C(=O)N[C@]1(C)CCCCCCC=CCCC[C@@](C)(C(=O)N[C@@H](CO)C(=O)N[C@@H](C)C(=O)N[C@@H](C)C(N)=O)NC(=O)[C@H](CC(=O)O)NC(=O)[C@H](CCC(N)=O)NC(=O)[C@H](C)NC(=O)[C@H](Cc2c[nH]c3ccccc23)NC(=O)[C@H](Cc2ccc(O)cc2)NC(=O)[C@H](CCC(=O)O)NC1=O)[C@@H](C)O
B12: ATSP-7041 B26W (peptide)
peptide: Biotin-LTF[R8]EYWAQW[S5]SAA-NH2
modifications: staple 4-11
SMILES: CC(C)C[C@H](NC(=O)CCCC[C@@H]1SC[C@@H]2NC(=O)N[C@@H]21)C(=O)N[C@H](C(=O)N[C@@H](Cc1ccccc1)C(=O)N[C@]1(C)CCCCCCC=CCCC[C@@](C)(C(=O)N[C@@H](CO)C(=O)N[C@@H](C)C(=O)N[C@@H](C)C(N)=O)NC(=O)[C@H](Cc2c[nH]c3ccccc23)NC(=O)[C@H](CCC(N)=O)NC(=O)[C@H](C)NC(=O)[C@H](Cc2c[nH]c3ccccc23)NC(=O)[C@H](Cc2ccc(O)cc2)NC(=O)[C@H](CCC(=O)O)NC1=O)[C@@H](C)O
B13: ATSP-7041 B26N (peptide)
peptide: Biotin-LTF[R8]EYWAQN[S5]SAA-NH2
modifications: staple 4-11
SMILES: CC(C)C[C@H](NC(=O)CCCC[C@@H]1SC[C@@H]2NC(=O)N[C@@H]21)C(=O)N[C@H](C(=O)N[C@@H](Cc1ccccc1)C(=O)N[C@]1(C)CCCCCCC=CCCC[C@@](C)(C(=O)N[C@@H](CO)C(=O)N[C@@H](C)C(=O)N[C@@H](C)C(N)=O)NC(=O)[C@H](CC(N)=O)NC(=O)[C@H](CCC(N)=O)NC(=O)[C@H](C)NC(=O)[C@H](Cc2c[nH]c3ccccc23)NC(=O)[C@H](Cc2ccc(O)cc2)NC(=O)[C@H](CCC(=O)O)NC1=O)[C@@H](C)O
B14: ATSP-7041 B26Y (peptide)
peptide: Biotin-LTF[R8]EYWAQY[S5]SAA-NH2
modifications: staple 4-11
SMILES: CC(C)C[C@H](NC(=O)CCCC[C@@H]1SC[C@@H]2NC(=O)N[C@@H]21)C(=O)N[C@H](C(=O)N[C@@H](Cc1ccccc1)C(=O)N[C@]1(C)CCCCCCC=CCCC[C@@](C)(C(=O)N[C@@H](CO)C(=O)N[C@@H](C)C(=O)N[C@@H](C)C(N)=O)NC(=O)[C@H](Cc2ccc(O)cc2)NC(=O)[C@H](CCC(N)=O)NC(=O)[C@H](C)NC(=O)[C@H](Cc2c[nH]c3ccccc23)NC(=O)[C@H](Cc2ccc(O)cc2)NC(=O)[C@H](CCC(=O)O)NC1=O)[C@@H](C)O

Each binder was assayed against T1, recombinant HDM2 (amino acids 17-125 of SEQ ID NO:103) (human, UniProt Q00987 17-125) (assay: streptavidin pull-down of biotinylated peptide with recombinant HDM2 and HDMX (1:1 mixture per paragraph 301), western blot).
T1 construct: also called MDM2; not shown: thrombin cleavage site (pET28a vector)
T1 sequence (Q00987 other isoform, or with tags, fused parts or gaps): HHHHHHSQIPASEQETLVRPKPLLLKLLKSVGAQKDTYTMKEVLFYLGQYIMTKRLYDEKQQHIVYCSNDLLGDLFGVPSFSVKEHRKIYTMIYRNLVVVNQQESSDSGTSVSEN

Binding result, no binding:
B1
B2
B3
B4
B5
B6
B7
B8
B9
B10
B11
B12
B13
B14

— patent US20230192789A1, “STRUCTURALLY-STABILIZED AND HDMX-SELECTIVE P53 PEPTIDES AND USES THEREOF” (Dana-Farber Cancer Institute, Inc., priority 2020, published 2023)
